The target of this assay is T1, c-Met, the receptor for Hepatocyte Growth Factor (HGF) (human (endogenous in SNU-449 and …, UniProt P08581 25-1390)).
T1 construct: precipitated with agarose-conjugated anti-c-Met antibody sc-161 AC; Endogenous receptor in a lysate; the co-IP blot detects total c-Met; also called c-Met Tyrosine Kinase; source: endogenous, Mahlavu whole cell lysate
The assay can be described thus: co-IP; SNU-449 whole cell lysates (modified NP-40 buffer) precipitated with agarose-conjugated anti-c-Met antibody (sc-161 AC), blotted for CAV1 and c-Met; serum-starved cells untreated or exposed to HGF (40 ng/mL) for 15, 30 and 60 min; IgG as IP control. The note with it: partners not purified.

T1 sequence (P08581 25-1390): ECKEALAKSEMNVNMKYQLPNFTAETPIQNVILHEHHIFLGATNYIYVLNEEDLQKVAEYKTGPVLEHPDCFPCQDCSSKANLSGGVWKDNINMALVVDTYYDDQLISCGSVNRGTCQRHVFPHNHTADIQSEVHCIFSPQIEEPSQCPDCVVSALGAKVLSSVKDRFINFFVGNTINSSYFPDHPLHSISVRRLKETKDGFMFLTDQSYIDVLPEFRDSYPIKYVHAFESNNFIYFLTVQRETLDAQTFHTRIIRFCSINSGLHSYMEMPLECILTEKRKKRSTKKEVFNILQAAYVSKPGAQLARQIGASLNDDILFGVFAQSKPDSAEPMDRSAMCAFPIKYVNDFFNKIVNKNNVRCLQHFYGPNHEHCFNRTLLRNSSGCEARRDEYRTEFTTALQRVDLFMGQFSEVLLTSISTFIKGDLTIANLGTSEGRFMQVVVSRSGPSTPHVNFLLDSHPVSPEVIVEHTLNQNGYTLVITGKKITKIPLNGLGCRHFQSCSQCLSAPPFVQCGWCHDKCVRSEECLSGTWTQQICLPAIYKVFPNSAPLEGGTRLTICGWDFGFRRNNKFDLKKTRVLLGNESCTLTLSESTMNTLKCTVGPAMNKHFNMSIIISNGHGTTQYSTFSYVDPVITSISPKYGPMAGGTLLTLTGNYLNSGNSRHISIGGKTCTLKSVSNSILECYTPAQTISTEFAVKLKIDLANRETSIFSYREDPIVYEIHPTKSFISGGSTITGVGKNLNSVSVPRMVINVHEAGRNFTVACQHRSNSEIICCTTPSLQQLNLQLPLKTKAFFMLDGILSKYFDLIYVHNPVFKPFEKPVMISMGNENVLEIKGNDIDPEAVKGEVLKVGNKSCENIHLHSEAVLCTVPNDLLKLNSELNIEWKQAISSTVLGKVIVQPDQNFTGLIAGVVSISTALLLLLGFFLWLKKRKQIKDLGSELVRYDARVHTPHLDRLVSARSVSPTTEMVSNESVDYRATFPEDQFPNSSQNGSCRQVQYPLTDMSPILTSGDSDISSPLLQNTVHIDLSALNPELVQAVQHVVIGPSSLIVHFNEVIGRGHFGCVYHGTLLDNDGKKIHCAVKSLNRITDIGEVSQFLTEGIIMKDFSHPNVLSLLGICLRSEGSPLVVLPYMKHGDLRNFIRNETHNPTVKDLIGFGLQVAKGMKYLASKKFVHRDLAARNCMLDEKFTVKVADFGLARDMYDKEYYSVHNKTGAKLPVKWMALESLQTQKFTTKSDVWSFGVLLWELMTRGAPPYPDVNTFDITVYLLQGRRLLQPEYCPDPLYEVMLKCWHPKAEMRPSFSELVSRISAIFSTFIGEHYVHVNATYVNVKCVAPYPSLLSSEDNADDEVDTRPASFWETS

B1: Caveolin 1 (CAV1) (natural protein, UniProt Q03135 1-178, looked up)
chain: MSGGKYVDSEGHLYTVPIREQGNIYKPNNKAMADELSEKQVYDAHTKEIDLVNRDPKHLNDDVVKIDFEDVIAEPEGTHSFDGIWKASFTTFTVTKYWFYRLLSALFGIPMALIWGIYFAILSFLHIWAVVPCIKSFLIEIQCISRVYSIYVHTVCDPLFEAVGKIFSNVRINLQKEI
notes: detected by Western blot with an antibody to CAV1; Endogenous protein; the co-IP blot detects total CAV1; source: endogenous, Mahlavu whole cell lysate
Turning to B1, the “fold increase in the amount co-immunoprecipitated upon HGF stimulation, against no HGF” value was at least 3 fold.

The record behind these values is article PMC4141763, “Reciprocal Activating Crosstalk between c-Met and Caveolin 1 Promotes Invasive Phenotype in Hepatocellular Carcinoma” (PLoS ONE, 2014).
